The values below come from patent US20210301018A1 (ITABMED HK, published 2021).

In general, Kd refers to a measure of binding affinity in units of concentration. The EC50 is the concentration needed to bring the measured effect to its halfway point.

The target of assay [1] is T1, human CD19 on cells (human B lymphocytes; Raji, Daudi and Reh tumor cells) (human, UniProt P15391 20-556).
T1 sequence (looked up): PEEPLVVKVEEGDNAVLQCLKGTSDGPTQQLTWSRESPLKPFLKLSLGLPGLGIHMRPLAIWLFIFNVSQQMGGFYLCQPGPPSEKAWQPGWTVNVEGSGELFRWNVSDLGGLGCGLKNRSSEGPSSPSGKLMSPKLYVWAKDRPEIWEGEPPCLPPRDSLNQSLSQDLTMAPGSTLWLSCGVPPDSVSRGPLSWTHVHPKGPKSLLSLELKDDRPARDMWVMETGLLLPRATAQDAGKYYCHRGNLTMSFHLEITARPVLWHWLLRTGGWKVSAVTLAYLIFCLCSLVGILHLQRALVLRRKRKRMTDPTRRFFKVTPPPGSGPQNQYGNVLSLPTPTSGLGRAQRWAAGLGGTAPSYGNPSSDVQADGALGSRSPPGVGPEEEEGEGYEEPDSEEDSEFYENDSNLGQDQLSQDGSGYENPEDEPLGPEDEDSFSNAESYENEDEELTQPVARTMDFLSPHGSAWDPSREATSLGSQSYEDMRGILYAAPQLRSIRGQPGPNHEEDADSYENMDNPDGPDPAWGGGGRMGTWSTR
Kind of assay: cell-based or functional assay.

Assay [2] addresses T2, Recombinant Human CD19 Fc Chimera (R&D Systems) (human, UniProt P15391 20-291).
T2 construct: Bought reagent; also called huCD19.Fc; not shown: Fc of the bought chimera
T2 sequence (looked up): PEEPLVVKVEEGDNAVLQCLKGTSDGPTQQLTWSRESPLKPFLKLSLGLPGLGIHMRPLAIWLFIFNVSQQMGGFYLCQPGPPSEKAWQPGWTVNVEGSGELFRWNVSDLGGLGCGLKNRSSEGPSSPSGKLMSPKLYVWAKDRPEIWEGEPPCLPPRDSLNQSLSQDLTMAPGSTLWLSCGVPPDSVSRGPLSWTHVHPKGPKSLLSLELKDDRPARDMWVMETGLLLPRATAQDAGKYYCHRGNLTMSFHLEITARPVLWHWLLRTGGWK
The experiment in a line: BLI (Octet QKe), antigen-Fc captured on AHC sensor, ITAB2009 in solution. On the procedure:
(§1) The human CD3 antigen construct (CD3εAA 1-27.Fc) and the cynomolgus monkey CD3 antigen construct (cynoCD3εAA 1-27.Fc) each consists of a peptide of amino acid residues 1-27 of CD3ε connected to a human IgG Fc. The expression of the antigen constructs is described in U.S. Pat. No. 8,846,042. The CD3 or CD19 antigen constructs (Cynomolgus/Rhesus CD19 Protein (Fc Tag), Sino Biological. Inc.; Recombinant Human CD19 Fc Chimera, R&D Systems. Inc.) were diluted to 0.02 mg/mL with dilution buffer (PBS), and then immobilized on an anti-Human Fc capture (AHC) biosensor. […] The control wells containing only PBS were also set up. The detection results were analyzed using ForteBio Data Analysis software.

The target in assay [3] is T3, Cynomolgus/Rhesus CD19 Protein (Fc Tag) (Sino Biological) (cynomolgus monkey / rhesus, UniProt F7F486 20-292 (rhesus entry)).
T3 construct: Bought reagent; also called cynoCD19.Fc
T3 sequence: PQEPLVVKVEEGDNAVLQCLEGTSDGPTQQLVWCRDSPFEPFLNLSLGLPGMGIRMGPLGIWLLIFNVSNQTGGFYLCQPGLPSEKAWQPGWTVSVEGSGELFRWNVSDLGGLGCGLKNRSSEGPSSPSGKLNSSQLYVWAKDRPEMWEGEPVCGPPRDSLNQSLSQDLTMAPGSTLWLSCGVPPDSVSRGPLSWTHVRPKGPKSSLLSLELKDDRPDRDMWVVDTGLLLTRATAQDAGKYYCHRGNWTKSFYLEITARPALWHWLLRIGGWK
Described as above. On the procedure: as §1

The target in assay [4] is T4, cynomolgus monkey CD3 antigen construct cynoCD3εAA 1-27.Fc (cynomolgus monkey; human, UniProt Q95LI5 22-48).
T4 construct: range 1-27
T4 chain (looked up): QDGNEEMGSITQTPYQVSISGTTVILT
Described as above. On the procedure:
as §1

Assay [5] concerns the target T1, human CD19 on cells (human B …). Kind of assay: flow cytometry, binding rate on B cells in human PBMC, detection with anti-human Ig κ light chain. As for the experimental part: (§2) About 3.6×10⁵ PBMCs (huPBMC or cynoPBMC) per well were added to a 96-well plate. […] Cells were washed with FACS buffer once, resuspended in 50 μL FACS buffer, supplemented with Antibody PE Mouse Anti-Human CD20 (BD Pharmingen™), FITC Mouse Anti-Human CD4 (BD Pharmingen™), and APC Mouse anti-Human Ig, κ Light Chain (BD Pharmingen™), and incubated at room temperature for 45 min. 200 μL FACS buffer was finally added, and the samples were analyzed using ACCURI® C6 Cytometer (BD Biosciences).
(§3) Binding rate was plotted against the y-axis, and drug concentration was plotted against the x-axis. The curve was fitted using a 4-parameter logistic model to determine EC50.
In general terms: Flow cytometry measures light scatter and fluorescence of single cells or particles in a stream.

Assay [6] has as its target T5, human CD3 on human T lymphocytes (huPBMC) (human, UniProt P07766 23-207).
T5 construct: whole, on cells; also called huCD3; cell surface antigen CD3 on human T cells
Kind of assay: flow cytometry, binding rate on T cells in human PBMC, detection with anti-human Ig κ light chain. On the procedure: as §2, §3

Assay [7] deals with T6, cynomolgus monkey CD19 on cynomolgus monkey B lymphocytes (cynoPBMC) (cynomolgus monkey, UniProt A0A2K5W8L9 20-557).
T6 construct: whole, on cells; also called cynoCD19; cell surface antigen CD19 on cynomolgus monkey B cells
T6 sequence: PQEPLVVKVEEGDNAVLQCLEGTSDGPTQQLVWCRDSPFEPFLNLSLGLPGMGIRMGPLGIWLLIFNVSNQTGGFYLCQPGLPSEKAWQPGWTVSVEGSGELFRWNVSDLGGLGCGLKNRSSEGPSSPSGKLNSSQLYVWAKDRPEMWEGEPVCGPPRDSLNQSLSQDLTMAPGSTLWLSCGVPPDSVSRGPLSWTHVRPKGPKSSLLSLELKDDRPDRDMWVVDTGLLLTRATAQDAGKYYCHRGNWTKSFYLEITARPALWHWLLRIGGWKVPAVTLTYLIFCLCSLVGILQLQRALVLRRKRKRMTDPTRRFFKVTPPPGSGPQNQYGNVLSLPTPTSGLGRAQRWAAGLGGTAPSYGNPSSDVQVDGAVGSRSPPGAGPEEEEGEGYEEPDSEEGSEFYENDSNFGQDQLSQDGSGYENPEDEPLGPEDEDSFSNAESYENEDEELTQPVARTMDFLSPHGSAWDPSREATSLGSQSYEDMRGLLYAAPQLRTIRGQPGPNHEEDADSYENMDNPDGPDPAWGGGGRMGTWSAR
The experiment in a line: flow cytometry, binding rate on B cells in cynomolgus monkey PBMC, detection with anti-human Ig κ light chain. On the procedure:
(§4) CynoPBMC Preparation: Whole blood samples from cynomolgus monkeys were diluted with PBS buffer (Gibco), centrifuged by density gradient centrifugation using 90% Ficoll-Paque isolation buffer (obtained by diluting Ficoll-Paque with PBS, Ficoll-Paque, GE Healthcare) to obtain PBMC, washed twice with PBS, then centrifuged at room temperature, 1000 g for 10 min. Cells were collected, and resuspended in RPM′ 1640 Medium (Gibco) containing 10% FBS.
as §2, §3

For assay [8], the target named is T7, cynomolgus monkey CD3 on cynomolgus monkey T lymphocytes (cynoPBMC) (cynomolgus monkey, UniProt Q95LI5 22-198).
T7 construct: whole, on cells; also called cynoCD3; cell surface antigen CD3 on cynomolgus monkey T cells
Kind of assay: flow cytometry, binding rate on T cells in cynomolgus monkey PBMC, detection with anti-human Ig κ light chain. As for the experimental part:
as §4, §2, §3

T5 sequence (P07766 23-207): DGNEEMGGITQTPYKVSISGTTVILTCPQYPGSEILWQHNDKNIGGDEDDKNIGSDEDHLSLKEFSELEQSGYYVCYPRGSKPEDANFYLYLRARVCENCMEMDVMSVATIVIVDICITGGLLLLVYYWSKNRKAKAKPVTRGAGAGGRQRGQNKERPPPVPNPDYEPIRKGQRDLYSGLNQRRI

B1: CD19×CD3 bispecific antigen binding protein ITAB2009 (bispecific antibody)
chain: EVQLVESGGGLVQPGGSLRLSCAASGFTFNTYAMNWVRQAPGKGLEWVARIRSKYNNYATYYADSVKDRFTISRDDSKNTLYLQMNSLRAEDTAVYYCVRHGNFGNSYVSWFAYWGQGTMVTVSSGGGGSGGGGSGGGGSQAVVTQEPSLTVSPGGTVTLTCRSSTGAVTTSNYANWVQQKPGQAPRGLIGGTNKRAPGTPARFSGSLLGGKAALTLSGVQPEDEAEYYCALWYSNLWVFGGGTKLTVLSGGGGSQVQLVQSGPELIKPGGSVKMSCKASGYTFTSYVMHWVRQKPGQGLEWIGYINPYNDGTKYNEKFKGRATLTSDKSSSTAYMELSSLRSEDSAVYYCARGTYYYGSRVFDYWGQGTTVTVSSASTKGPSVFPLAPSSKSTSGGTAALGCLVKDYFPEPVTVSWNSGALTSGVHTFPAVLQSSGLYSLSSVVTVPSSSLGTQTYICNVNHKPSNTKVDKKVEPKSCPPCS
light: DVVMTQSPSSIPVTLGESVSISCRSSKSLQNVNGNTYLYWFQQRPGQSPQLLIYRMSNLNSGVPDRFSGSGSGTDFTLRISGVEPEDVGVYYCMQHLEYPITFGAGTKLEIKRTVAAPSVFIFPPSDEQLKSGTASVVCLLNNFYPREAKVQWKVDNALQSGNSQESVTEQDSKDSTYSLSSTLTLSKADYEKHKVYACEVTHQGLSSPVTKSFNRGECPPCS
notes: Anti-CD3 scFv joined to the N-terminus of the VH of the anti-CD19 Fab; also called CD19×CD3 BSAP ITAB2009; ITB2009
As for B1, the “EC50 of CD19×CD3 BSAP mediated human PBMC cytotoxicity against tumor cells (Daudi)” value in assay [1] was determined as 0.06 ng/mL. Further, the “EC50 of CD19×CD3 BSAP mediated human PBMC cytotoxicity against tumor cells (Raji)” value in assay [1] came to 0.04 ng/mL. Moreover, the “EC50 of CD19×CD3 BSAP mediated human PBMC cytotoxicity against tumor cells (Reh)” value in assay [1] turned out to be 0.24 ng/mL. Besides, the Kd in assay [2] was 18.2 nM; in assay [3], 29.6 nM; in assay [4], 12.9 nM. Moreover, the concentration giving a half-maximal response (EC50) in assay [5] was 35 ng/mL; in assay [6], 204 ng/mL; in assay [7], 1900 ng/mL; in assay [8], 115 ng/mL.
